From PMC10566112

Biological target: dopamine D2 receptor labelled with mCherry (D2R-mCherry) (UniProt P14416)
Sequence of UniProt P14416 (P14416 whole entry): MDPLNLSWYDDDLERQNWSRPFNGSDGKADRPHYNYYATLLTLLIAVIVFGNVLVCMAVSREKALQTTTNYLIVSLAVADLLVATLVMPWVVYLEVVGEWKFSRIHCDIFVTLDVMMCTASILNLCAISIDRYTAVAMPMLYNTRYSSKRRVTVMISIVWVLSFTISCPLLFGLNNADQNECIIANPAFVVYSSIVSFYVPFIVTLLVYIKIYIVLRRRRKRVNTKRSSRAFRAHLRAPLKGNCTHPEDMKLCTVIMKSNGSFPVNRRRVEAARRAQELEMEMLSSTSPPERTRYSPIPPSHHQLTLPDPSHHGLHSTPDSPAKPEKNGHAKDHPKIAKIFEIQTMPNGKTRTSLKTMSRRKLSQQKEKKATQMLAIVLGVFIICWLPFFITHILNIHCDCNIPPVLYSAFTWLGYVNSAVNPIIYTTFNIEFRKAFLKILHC

intracellular cAMP level in HEK293 cells after stimulation of D2R with 1 μM sumanirole, as percent of control (stimulated nontransfected cells) (% of the control)	Substance
20	Gαi3β1γ2 heterotrimer (Gαi3-Citrine with Gβ1 and Gγ2) (from UniProt P08754 1-354; P62873 1-340; P59768 1-71) (complex)
70.4	Gαi3β1γ9 heterotrimer (Gαi3-Citrine with Gβ1 and Gγ9) (from UniProt P08754 1-354; P62873 1-340; O14610 1-69) (complex)
14.4	Gαi3β1γ10 heterotrimer (Gαi3-Citrine with Gβ1 and Gγ10) (from UniProt P08754 1-354; P62873 1-340; P50151 1-68) (complex)
